# Laboratory results published in the supplement of paper PMC10567573.
# B1: SLC19A2 (parent)
# chain: FHHIPSTCQRVNGIKVQNGGIVTD
# Variants of: B1
# Experiment: protein stability index of a GFP-peptide fusion (GPS, HEK-293T) (PSI 1-6); higher = more stable
# Details: c terminus: a fixed tail appended
# 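Also: lentivirally expressed fusions sorted by FACS into six bins by GFP to DsRed ratio, PSI derived from sequencing read proportions per bin multiplied by bin number.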
row,Variant,protein stability index
1,FHHIPSTCQRVNGIKVMNGGIVTD [Q17M],1.09
2,FHHIPSTCQRVNGIKVSNGGIVTD [Q17S],2.72
3,FHHIPSTCQRVNGIKVINGGIVTD [Q17I],1.6
4,FHHIPSTCQRVNGIKVQNSGIVTD [G19S],1.51
5,FHHIPSTCQRVNGIKVQNEGIVTD [G19E],2.81
6,FHHIPSTCQRVNGIKVQNLGIVTD [G19L],1.72
7,FHHIPSTCQRVNGIKVQNWGIVTD [G19W],1.62
8,FHHIPSTCQRVNGIKVQNVGIVTD [G19V],2.32
9,FHHIPSTCQRVNGIKVQNMGIVTD [G19M],1.27
10,FHHIPSTCQRVNGIKVQNCGIVTD [G19C],2.34
11,FHHIPSTCQRVNGIKVQNTGIVTD [G19T],2.78
12,FHHIPSTCQRVNGIKVQNYGIVTD [G19Y],1.74
13,FHHIPSTCQRVNGIKVQNDGIVTD [G19D],2.36
14,FHHIPSTCQRVNGIKVQNKGIVTD [G19K],1.94
15,FHHIPSTCQRVNGIKVQNQGIVTD [G19Q],2.16
16,FHHIPSTCQRVNGIKVQNAGIVTD [G19A],1.65
17,FHHIPSTCQRVNGIKVQNPGIVTD [G19P],2.04
18,FHHIPSTCQRVNGIKVQNRGIVTD [G19R],1.65
19,FHHIPSTCQRVNGIKVQNFGIVTD [G19F],2.25
20,FHHIPSTCQRVNGIKVQNIGIVTD [G19I],3.46
21,FHHIPSTCQRVNGIKVQNNGIVTD [G19N],2.37
22,FHHIPSTCQRVNGIKVQNHGIVTD [G19H],1.59
23,FHHIPSTCQRVNGVKVQNGGIVTD [I14V],1.69
24,FHHIPSTCQRVNGYKVQNGGIVTD [I14Y],1.47

row,Variant,protein stability index
1,FHHIPSTCQRVNGWKVQNGGIVTD [I14W],2.7
2,FHHIPSTCQRVNGIYVQNGGIVTD [K15Y],2.47
3,FHHIPSTCQRVNGINVQNGGIVTD [K15N],2.05
4,FHHIPSTCQRVNGIGVQNGGIVTD [K15G],2.38
5,FHHIPSTCQRVNGIEVQNGGIVTD [K15E],2.22
6,FHHIPSTCQRVNGIIVQNGGIVTD [K15I],2.14
7,FHHIPSTCQRVNGIRVQNGGIVTD [K15R],2.2
8,FHHIPSTCQRVNGIHVQNGGIVTD [K15H],2.37
9,FHHIPSTCQRVNGIVVQNGGIVTD [K15V],2.14
10,FHHIPSTCQRVNGICVQNGGIVTD [K15C],2.2
11,FHHIPSTCQRVNGILVQNGGIVTD [K15L],2.15
12,FHHIPSTCQRVNGIMVQNGGIVTD [K15M],1.64
13,FHHIPSTCQRVNGIFVQNGGIVTD [K15F],2.49
14,FHHIPSTCQRVNGIAVQNGGIVTD [K15A],1.91
15,FHHIPSTCQRVNGISVQNGGIVTD [K15S],2.24
16,FHHIPSTCQRVNGIQVQNGGIVTD [K15Q],2.47
17,FHHIPSTCQRVNGITVQNGGIVTD [K15T],2.19
18,FHHIPSTCQRVNGIDVQNGGIVTD [K15D],2.57
19,FHHIPSTCQRVNGIPVQNGGIVTD [K15P],2.33
20,FHHIPSTCQRVNGIKVQNGGLVTD [I21L],1.61
21,FHHIPSTCQRVNGIKVQNGGKVTD [I21K],3.06
22,FHHIPSTCQRVNGIKVQNGGYVTD [I21Y],2.18
23,FHHIPSTCQRVNGIKVQNGGQVTD [I21Q],2.16
24,FHHIPSTCQRVNGIKVQNGGGVTD [I21G],2.2

row,Variant,protein stability index
1,FHHIPSTCQRVNGIKVQNGGNVTD [I21N],3.07
2,FHHIPSTCQRVNGIKVQNGGPVTD [I21P],1.6
3,FHHIPSTCQRVNGIKVQNGGFVTD [I21F],1.83
4,FHHIPSTCQRVNGIKVQNGGEVTD [I21E],2.15
5,FHHIPSTCQRVNGIKVQNGGMVTD [I21M],2.03
6,FHHIPSTCQRVNGIKVQNGGHVTD [I21H],2.09
7,FHHIPSTCQRVNGIKVQNGGTVTD [I21T],2.19
8,FHHIPSTCQRVNGIKVQNGGDVTD [I21D],2.24
9,FHHIPSTCQRVNGIKVQNGGSVTD [I21S],1.85
10,FHHIPSTCQRVNGIKVQNGGAVTD [I21A],2.46
11,FHHIPSTCQRVNGIKVQNGGCVTD [I21C],1.79
12,FHHIPSTCQRVNGIKVQNGGRVTD [I21R],2.43
13,FHHIPSTCQRVNGIKVQNGGIVCD [T23C],2.27
14,FHHIPSTCQRVNGIKVQNGGIVND [T23N],1.86
15,FHHIPSTCQRVNGIKVQNGGIVSD [T23S],2.18
16,FHHIPSTCQRVNGIKVQNGGIVAD [T23A],2.4
17,FHHIPSTCQRVNGIKVQNGGIVWD [T23W],1.45
18,FHHIPSTCQRVNGIKVQNGGIVHD [T23H],3.31
19,FHHIPSTCQRVNGIKVQNGGIVMD [T23M],2.15
20,FHHIPSTCQRVNGIKVQNGGIVED [T23E],1.85
21,FHHIPSTCQRVNGIKVQNGGIVVD [T23V],1.67
22,FHHIPSTCQRVNGIKVQNGGIVRD [T23R],4.73
23,FHHIPSTCQRVNGIKVQNGGIVKD [T23K],2.11
24,FHHIPSTCQRVNGIKVQNGGIVFD [T23F],1.81

row,Variant,protein stability index
1,FHHIPSTCQRVNGIKVQNGGIVDD [T23D],2.53
2,FHHIPSTCQRVNGIKVQNGGIVPD [T23P],1.89
3,FHHIPSTCQRVNGIKVQNGGIVYD [T23Y],1.75
4,FHHIPSTCQRVNGIKVQNGGIVID [T23I],1.57
5,FHHIPSTCQRVNGIKVQNGGIVQD [T23Q],2.44
6,FHHIPSTCQRVNGIKVQNGGIVGD [T23G],1.67
7,FHHIPSTCQRVNGIKVQNGGIVLD [T23L],1.95
8,FHHIPSTCQRVNGIKVQNGGIVTP [D24P],1.72
9,FHHIPSTCQRVNGIKVQNGGIVTH [D24H],2.11
10,FHHIPSTCQRVNGIKVQNGGIVTA [D24A],2.16
11,FHHIPSTCQRVNGIKVQNGGIVTR [D24R],1.89
12,FHHIPSTCQRVNGIKVQNGGIVTC [D24C],1.5
13,FHHIPSTCQRVNGIKVQNGGIVTG [D24G],1.16
14,FHHIPSTCQRVNGIKVQNGGIVTI [D24I],2.06
15,FHHIPSTCQRVNGIKVQNGGIVTN [D24N],2.47
16,FHHIPSTCQRVNGIKVQNGGIVTM [D24M],2.38
17,FHHIPSTCQRVNGIKVQNGGIVTK [D24K],2.64
18,FHHIPSTCQRVNGIKVQNGGIVTE [D24E],2.06
19,FHHIPSTCQRVNGIKVQNGGIVTT [D24T],1.7
20,FHHIPSTCQRVNGIKVQNGGIVTS [D24S],2.12
21,FHHIPSTCQRVNGIKVQNGGIVTY [D24Y],3.21
22,FHHIPSTCQRVNGIKVQNGGIVTQ [D24Q],1.94
